Test results published in patent publication US12466852B2, “Method for extraction and purification of hirudin mutant and use thereof” (SUNGEN BIOSCIENCE CO., LTD., priority 2019, dated 2025).
“Also recorded” adds a separate entry of the source.

Columns and labels:
[1] = effects of drying process on the activity of hirudin mutant HV2-Lys47 in anticoagulant blood collection tubes; type: physicochemical; conditions: for Activity after drying / Activity loss: content 306ATU/tube
Protocol: Effects of drying process on the activity of hirudin mutant HV2-Lys47 in anticoagulant blood collection tubes were studied.
The hirudin prepared in Example 9 was dissolved in sterile pure water with a dissolution concentration of 3.4 g/100 ml pure water. 2 ml blood collection tubes were used, and each of them was sprayed with the solution of the prepared hirudin mutant HV2-Lys47 by needle spray, and then dried.
The common drying process in the art is high temperature drying: drying three times at 45° C., 50° C. and 70° C., three times for each temperature, and 60 seconds each time.
The drying method in the present application is: drying the sprayed blood collection tubes in a vacuum lyophilizer at a temperature of −50° C. and a vacuum degree of […].
The effects of high temperature drying and vacuum lyophilization methods on the activity of hirudin mutant HV2-Lys47 were as shown in Table 1 below.

thrombin = thrombin (Homo sapiens, UniProt P00734); test: anticoagulant activity by biochemical method determination (Chinese Pharmacopoeia 2005 edition, page 84)
Protocol: According to the analysis of anticoagulant activity by biochemical method determination, the anticoagulant activity of the prepared hirudin mutant HV2-Lys47 was calculated to be 17000 ATU/mg. For the specific determination of anticoagulant activity, reference may be made to the left column of page 84 of the Chinese Pharmacopoeia (2005 edition). Moreover, the purity of the hirudin mutant HV2-Lys47 calculated according to the proportion of color bands in gel electrophoresis had reached to 95%.

blood coagulation = test: effects of the amount of hirudin mutant HV2-Lys47 in the blood collection tube on blood coagulation; conditions: for Coagulation: blood collection volume 2
Protocol: Effects of the amount of the hirudin mutant HV2-Lys47, which was prepared and vacuum-lyophilized in Example 9, on blood coagulation were as shown in Table 2 below:
It can be seen from the above table that anticoagulant effect can be achieved when the amount of the hirudin mutant HV2-Lys47 added in the blood collection tube is 0.005 mg or more.

[2] = drying for 40 min at −50° C. and with a vacuum degree of −4 Mpa
[3] = drying three times at 45° C., 60 seconds each time
[4] = drying three times at 50° C., 60 seconds each time
[5] = drying three times at 70° C., 60 seconds each time

B1: hirudin mutant HV2-Lys47: hirudin mutant of SEQ ID NO.: 1; asparagine at position 47 of natural hirudin substituted by lysine; produced by Escherichia coli fermentation (protein)
chain: ITYTDCTESGQNLCLCEGSNVCGKGNKCILGSNGKGNQCVTGEGTPKPESHNNGDFEEIPEEYLQ
- Activity after drying [1, 2]: 304 ATU/tube
- Activity loss [1, 2]: 0.65%
- Activity after drying [1, 3]: 276 ATU/tube
- Activity loss [1, 3]: 9.8%
- Activity after drying [1, 4]: 245 ATU/tube
- Activity loss [1, 4]: 19.9%
- Activity after drying [1, 5]: 160 ATU/tube
- Activity loss [1, 5]: 47.7%
- loss of hirudin activity ([1]; high-temperature drying process generally used in production of a blood collection tube): about 10%
- hirudin activity loss (in words) ([1]; vacuum lyophilization): no hirudin activity loss; also recorded: not lost
- anticoagulant activity (thrombin; prepared in Example 1 (tube centrifuge, ethanol precipitation)): 17000 ATU/mg
- anticoagulant activity (thrombin; prepared in Example 2 (disk centrifuge, 8% salt)): 15800 ATU/mg
- anticoagulant activity (thrombin; prepared in Example 3 (ceramic membrane)): 16800 ATU/mg
- anticoagulant activity (thrombin; prepared in Example 4 (hollow fiber membrane)): 16000 ATU/mg
- anticoagulant activity (thrombin; prepared in Example 5 (methanol precipitation)): 15800 ATU/mg
- anticoagulant activity (thrombin; prepared in Example 6 (acetone precipitation)): 17000 ATU/mg
- anticoagulant activity (thrombin; prepared in Example 7 (ammonium sulfate precipitation)): 15000 ATU/mg
- anticoagulant activity (thrombin; prepared in Example 8 (ceramic membrane, nanofiltration, sodium chloride precipitation)): 14500 ATU/mg
- anticoagulant activity (thrombin; prepared in Example 9 (isopropanol precipitation)): 18000 ATU/mg
- amount added in the blood collection tube at which anticoagulant effect can be achieved (blood coagulation; 2 ml blood collection): ≥ 0.005 mg
- Coagulation (blood coagulation; amount 0.001): Quick coagulation
- Coagulation (blood coagulation; amount 0.005): No coagulation
- Coagulation (blood coagulation; amount 0.008): No coagulation
- Coagulation (blood coagulation; amount 0.02): No coagulation
- Coagulation (blood coagulation; amount 0.08): No coagulation
- Coagulation (blood coagulation; amount 0.16): No coagulation
- Coagulation (blood coagulation; amount 0.5): No coagulation
- Coagulation (blood coagulation; amount 1): No coagulation
- Coagulation (blood coagulation; amount 5): No coagulation
- Coagulation (blood coagulation; amount 10): No coagulation
- Coagulation (blood coagulation; amount 15): No coagulation
- Coagulation (blood coagulation; amount 20): No coagulation
